experiment: label from the status in PepcDB records

**Q.** With “MFDKIHYYYFNANYEKCLNLSEQFLKESPKFALEFATLSSYKLSLFQKALYYAQELFSLNPTSFNGLMLAKSYIENLRLDEALNLLQTLLTRKDDLEDELKLELAFIYKLSNKLEESEQIFKELLSKDMYNLNLWKNYAEIYFKHDFTKALNAHEHLCHFMQDLIDKLQKGIIAEQTNLNLVKLEDRLHSKTKENLTISKIEDFLTHQILPQKAYLLFKLFRISDSLELFQSLQEANQHHAQFWQNYAKVLEFNSNYQEAYHAYKKCLSLDSHATYQFDLAYLLMRMGVDDNFEEGKKYYESRLFYAHNETFSTYHYNESLKAFNKFGVDAFKNKEVLVFCEQGFGDTIMYARCLEKLCKIASKVLFAPQSAMYEMFKNQIKFLNQNDDIFKNVKVLKNLPTNFDYAIPICSLPFFIDIKLDEILRLKTPILPQKKPHNQRKKLGIFYATPNAENSDLLRNVKFEFLFDVLKDLDYEIISFQMQLKEELPKVIEDRSKLIKNWNDTLNYLYDIDCMLSIDSAIAHLSLAMDIPTIVLLHPRFDWRWGKFENPKSYFWPKAKCFIIKEQEETKRNLQKLIKDILN” as the sequence, how does the protein production read?
**A.** failed

**Q.** With “MFDTKIAVILRDDLAVWQKLNVTAFLMSGIVAQTGEIIGEPYRDGAGNVYNPLSIQPIVVMATDQEALRKIHQRSLERDITTSLYIEEMFATGHDAANRQVFSHFSPDTAKVVGMALRADRKIVDKITKGAKLHA” as the sequence, how does the protein production read?
**A.** not failed

**Q.** With “MFEENEKEQLLYYERNKESEKCQKVWESIICKGLGYSKEEIRRDVERSRREKERLLSILYGSVFTGPKYLLYSKKWRGKTLNEIINEDREKNLNKNNFKNMDLDSTYFCELSFGYMDTAEENDDKNKKEITKQMEKKNDKVPNIRKGGNTNNSQNKRKTYHGEKNANTTNKDLDEFYSKLNYLEKRSYKNRYRNDNNNKKNNNNNNNNNNSNSNNNYYYYYSNGRSSYTNELSNEKNKYNEENSDEGNVIKYKYLPTGVFYSRVSKSFIANWIDDKTKKQVKIPYKISEYGIEKCMILAILSRNLRLSNLSNVLKYYDELTDSQKEQMLHAIRTTQKSEKLFEDIINRNGNKKNENNIINNYSNIHNDTSINNNNNNNNNNNNNIGNTIGTQHKNKNKQNANDQKNIPMKKKLIEKKKVKQSYVNEEKLPTGVYFYQGSYVANWWETNQKKQFKVPFKISEYGIARAKNLAIISRLIRSSSIPDINLILTQMENDHNLSDMDYTAISELAYKYIENMAKKE” as the sequence, how does the protein production read?
**A.** failed

**Q.** With “MFEFILQLSLGILAVSTFLYVLRVIKGPSIPDRVVALDAIGINLIGITALVSILLNTTAYLEVILLIGILAFIGTVAFSKFLEKGEIIENDRSR” as the sequence, how does the protein production read?
**A.** failed

**Q.** For “MFEGQPKGLYALALANTGERFGYYTMLAIFTLFLQAKFGYTAAETSTIFGCFLAAVYFIPFFGGILADKFGYGKMVTMGIVVMFIGYALLAIPTSDNSGKIMMFGALALIACGTGLFKGNLQVMVGNLYDAPEYSSKRDTAFSIFYMAINIGAMYAPTAATKVTNYMLGKAGLSYVPQIPSLAHQYLDGTITPANQATLESLQAAQNFTGDIATFCTTYIDKLSEAYNYGFGVACVSLIISMLIYVAFRSTFKHADYNSKQAKPANVVEEKLTPEQTKQRIVALLLVFAVVIFFWMAFHQNGLTLTFFARDYTAQEVTGLDRLGFNIVNLTFLLIVIYGLFSLFQGKTGKSKTIAGVVVMVALLCLGWSYTSMDPTINILPQIFQQFNPFFVIALTPVSLAVFGYLARKGKEPSAPRKIGIGMMIAVCGFLIMAIGSIGLPTPDALAASGIEKDALVSPNWLISTYLVLTFAELFLSPMGISFVSKVAPPKYKGMMMGGWFAATAIGNYLVAIIGYLWGGMQLWMVWSVLIVCCLLAALFIFSIMKKLEKVA”, which protein production is on record?
**A.** failed

**Q.** Which protein production does the source give for “MFFLRTTKRMESYSQNSNKLDFQHEARILNSIWLITALGLVATAGLAWGAKYLEITATKYDSPQMYVAIGLLLLSMYGLSKDINKINTAIAGVIYLFLISLVAIVVASLAPVSAIIVVFSTAGSMFLISMLAGLLFKFDPGSHRFIIMMTLTGLALVIIVNATLMSERPIWVISCLMIVLWSGIISHGRNKLLELTGKSHSEELWSSVRCAFIGALTLYYYFIGFFGILAAIAITLVWQRHTRFFH” here?
**A.** failed

**Q.** With “MFGEQLLKNPLIEFCDSVCRGCGQVMFQNNTVTGLLFFAGIFYNSTTLGVCAVLGTAASTLTAQLLGVDKPLVRAGLFGFNGTLAGIALPFFFNYEPAMLGYVALNGAFTTIIMASLLNFLGKWGVPALTAPFVLATWLLMFGVYKLSLFHPGALIAPALPSVAGLADMGTVTGRTFMEGLFKGVGEVMFQDNIVTGVIFVVAILVNSRISALFAVIGSLVGLCTALIMHSPETPVRLGLYGFNSVLCGIAMGGIFFYLNIRTFLYALGCMVLGAIATGAFSVLLSPIGMPALTWPFIVVTWLFLFAGSMFRNIAQVPTEKAGTPEDNLRSLAIGSR” as the sequence, how does the protein production read?
**A.** not failed
